# In the Human Domainome abundance scans (Beltran et al. 2025):
# ± gives the uncertainty stated by the source.
# Assay: abundance fitness (aPCA) (normalised: wild type 0, dead -1); higher = more abundant; growth selection in yeast, the domain comes from the species named
# Conditions: Homo sapiens
row,Substance,abundance fitness
1,"E3 ubiquitin-protein ligase NEDD4-like Q185H, Q96PU5",-0.034 ± 0.081
2,"E3 ubiquitin-protein ligase NEDD4-like Q185I, Q96PU5",-0.038 ± 0.11
3,"E3 ubiquitin-protein ligase NEDD4-like Q185K, Q96PU5",-0.398 ± 0.12
4,"E3 ubiquitin-protein ligase NEDD4-like Q185L, Q96PU5",-0.542 ± 0.081
5,"E3 ubiquitin-protein ligase NEDD4-like Q185N, Q96PU5",0.154 ± 0.12
6,"E3 ubiquitin-protein ligase NEDD4-like Q185P, Q96PU5",-0.539 ± 0.12
7,"E3 ubiquitin-protein ligase NEDD4-like Q185R, Q96PU5",-0.633 ± 0.068
8,"E3 ubiquitin-protein ligase NEDD4-like Q185S, Q96PU5",-1.18 ± 0.15
9,"E3 ubiquitin-protein ligase NEDD4-like Q185T, Q96PU5",-0.143 ± 0.1
10,"E3 ubiquitin-protein ligase NEDD4-like Q185V, Q96PU5",-0.332 ± 0.075
11,"E3 ubiquitin-protein ligase NEDD4-like Q185Y, Q96PU5",0.011 ± 0.11
12,"E3 ubiquitin-protein ligase NEDD4-like Q187A, Q96PU5",-0.256 ± 0.058
13,"E3 ubiquitin-protein ligase NEDD4-like Q187D, Q96PU5",-0.167 ± 0.097
14,"E3 ubiquitin-protein ligase NEDD4-like Q187E, Q96PU5",-0.767 ± 0.079
15,"E3 ubiquitin-protein ligase NEDD4-like Q187F, Q96PU5",0.041 ± 0.07
16,"E3 ubiquitin-protein ligase NEDD4-like Q187G, Q96PU5",-0.799 ± 0.07
17,"E3 ubiquitin-protein ligase NEDD4-like Q187I, Q96PU5",-0.247 ± 0.11
18,"E3 ubiquitin-protein ligase NEDD4-like Q187K, Q96PU5",0.243 ± 0.087
19,"E3 ubiquitin-protein ligase NEDD4-like Q187L, Q96PU5",-0.287 ± 0.071
20,"E3 ubiquitin-protein ligase NEDD4-like Q187M, Q96PU5",-0.069 ± 0.092
21,"E3 ubiquitin-protein ligase NEDD4-like Q187N, Q96PU5",-0.001 ± 0.072
22,"E3 ubiquitin-protein ligase NEDD4-like Q187R, Q96PU5",-0.298 ± 0.066
23,"E3 ubiquitin-protein ligase NEDD4-like Q187S, Q96PU5",-0.242 ± 0.073
24,"E3 ubiquitin-protein ligase NEDD4-like Q187T, Q96PU5",0.016 ± 0.09

row,Substance,abundance fitness
1,"E3 ubiquitin-protein ligase NEDD4-like Q187V, Q96PU5",-0.233 ± 0.06
2,"E3 ubiquitin-protein ligase NEDD4-like Q187W, Q96PU5",-0.907 ± 0.073
3,"E3 ubiquitin-protein ligase NEDD4-like Q187Y, Q96PU5",0.031 ± 0.1
4,"E3 ubiquitin-protein ligase NEDD4-like Q220A, Q96PU5",-0.096 ± 0.057
5,"E3 ubiquitin-protein ligase NEDD4-like Q220C, Q96PU5",-0.06 ± 0.071
6,"E3 ubiquitin-protein ligase NEDD4-like Q220D, Q96PU5",-0.258 ± 0.088
7,"E3 ubiquitin-protein ligase NEDD4-like Q220E, Q96PU5",-0.555 ± 0.084
8,"E3 ubiquitin-protein ligase NEDD4-like Q220F, Q96PU5",-0.618 ± 0.12
9,"E3 ubiquitin-protein ligase NEDD4-like Q220G, Q96PU5",-0.548 ± 0.071
10,"E3 ubiquitin-protein ligase NEDD4-like Q220H, Q96PU5",-0.775 ± 0.17
11,"E3 ubiquitin-protein ligase NEDD4-like Q220I, Q96PU5",-0.371 ± 0.12
12,"E3 ubiquitin-protein ligase NEDD4-like Q220K, Q96PU5",-0.757 ± 0.12
13,"E3 ubiquitin-protein ligase NEDD4-like Q220M, Q96PU5",-0.362 ± 0.093
14,"E3 ubiquitin-protein ligase NEDD4-like Q220N, Q96PU5",-0.354 ± 0.071
15,"E3 ubiquitin-protein ligase NEDD4-like Q220P, Q96PU5",-0.9 ± 0.078
16,"E3 ubiquitin-protein ligase NEDD4-like Q220R, Q96PU5",-0.557 ± 0.072
17,"E3 ubiquitin-protein ligase NEDD4-like Q220S, Q96PU5",0.184 ± 0.065
18,"E3 ubiquitin-protein ligase NEDD4-like Q220T, Q96PU5",0.163 ± 0.077
19,"E3 ubiquitin-protein ligase NEDD4-like Q220V, Q96PU5",-0.242 ± 0.06
20,"E3 ubiquitin-protein ligase NEDD4-like Q220Y, Q96PU5",-0.692 ± 0.096
21,"E3 ubiquitin-protein ligase NEDD4-like R208A, Q96PU5",0.036 ± 0.062
22,"E3 ubiquitin-protein ligase NEDD4-like R208C, Q96PU5",0.06 ± 0.062
23,"E3 ubiquitin-protein ligase NEDD4-like R208D, Q96PU5",0.067 ± 0.098
24,"E3 ubiquitin-protein ligase NEDD4-like R208E, Q96PU5",0.047 ± 0.083

row,Substance,abundance fitness
1,"E3 ubiquitin-protein ligase NEDD4-like R208F, Q96PU5",-0.289 ± 0.06
2,"E3 ubiquitin-protein ligase NEDD4-like R208G, Q96PU5",-0.191 ± 0.06
3,"E3 ubiquitin-protein ligase NEDD4-like R208I, Q96PU5",-0.504 ± 0.12
4,"E3 ubiquitin-protein ligase NEDD4-like R208K, Q96PU5",-0.028 ± 0.079
5,"E3 ubiquitin-protein ligase NEDD4-like R208L, Q96PU5",-0.128 ± 0.069
6,"E3 ubiquitin-protein ligase NEDD4-like R208M, Q96PU5",-0.062 ± 0.078
7,"E3 ubiquitin-protein ligase NEDD4-like R208N, Q96PU5",0.225 ± 0.11
8,"E3 ubiquitin-protein ligase NEDD4-like R208P, Q96PU5",-0.908 ± 0.099
9,"E3 ubiquitin-protein ligase NEDD4-like R208Q, Q96PU5",0.215 ± 0.09
10,"E3 ubiquitin-protein ligase NEDD4-like R208T, Q96PU5",-0.005 ± 0.08
11,"E3 ubiquitin-protein ligase NEDD4-like R208W, Q96PU5",-0.408 ± 0.083
12,"E3 ubiquitin-protein ligase NEDD4-like R208Y, Q96PU5",-0.23 ± 0.11
13,"E3 ubiquitin-protein ligase NEDD4-like R217A, Q96PU5",0 ± 0.064
14,"E3 ubiquitin-protein ligase NEDD4-like R217C, Q96PU5",-0.105 ± 0.081
15,"E3 ubiquitin-protein ligase NEDD4-like R217D, Q96PU5",-0.042 ± 0.078
16,"E3 ubiquitin-protein ligase NEDD4-like R217E, Q96PU5",-0.153 ± 0.085
17,"E3 ubiquitin-protein ligase NEDD4-like R217F, Q96PU5",-0.011 ± 0.088
18,"E3 ubiquitin-protein ligase NEDD4-like R217G, Q96PU5",-0.005 ± 0.054
19,"E3 ubiquitin-protein ligase NEDD4-like R217H, Q96PU5",-1 ± 0.062
20,"E3 ubiquitin-protein ligase NEDD4-like R217I, Q96PU5",-0.267 ± 0.084
21,"E3 ubiquitin-protein ligase NEDD4-like R217K, Q96PU5",0.087 ± 0.091
22,"E3 ubiquitin-protein ligase NEDD4-like R217L, Q96PU5",-0.208 ± 0.06
23,"E3 ubiquitin-protein ligase NEDD4-like R217M, Q96PU5",-0.239 ± 0.07
24,"E3 ubiquitin-protein ligase NEDD4-like R217N, Q96PU5",0.051 ± 0.089

row,Substance,abundance fitness
1,"E3 ubiquitin-protein ligase NEDD4-like R217P, Q96PU5",-0.267 ± 0.085
2,"E3 ubiquitin-protein ligase NEDD4-like R217Q, Q96PU5",-0.016 ± 0.067
3,"E3 ubiquitin-protein ligase NEDD4-like R217T, Q96PU5",-0.069 ± 0.081
4,"E3 ubiquitin-protein ligase NEDD4-like R217Y, Q96PU5",-0.179 ± 0.084
5,"E3 ubiquitin-protein ligase NEDD4-like R223A, Q96PU5",-0.175 ± 0.066
6,"E3 ubiquitin-protein ligase NEDD4-like R223C, Q96PU5",-0.552 ± 0.09
7,"E3 ubiquitin-protein ligase NEDD4-like R223D, Q96PU5",-0.481 ± 0.098
8,"E3 ubiquitin-protein ligase NEDD4-like R223E, Q96PU5",-0.378 ± 0.087
9,"E3 ubiquitin-protein ligase NEDD4-like R223F, Q96PU5",-0.461 ± 0.12
10,"E3 ubiquitin-protein ligase NEDD4-like R223G, Q96PU5",-0.696 ± 0.068
11,"E3 ubiquitin-protein ligase NEDD4-like R223H, Q96PU5",-0.18 ± 0.13
12,"E3 ubiquitin-protein ligase NEDD4-like R223K, Q96PU5",0.013 ± 0.1
13,"E3 ubiquitin-protein ligase NEDD4-like R223L, Q96PU5",-0.206 ± 0.053
14,"E3 ubiquitin-protein ligase NEDD4-like R223M, Q96PU5",-0.28 ± 0.067
15,"E3 ubiquitin-protein ligase NEDD4-like R223N, Q96PU5",-0.082 ± 0.088
16,"E3 ubiquitin-protein ligase NEDD4-like R223P, Q96PU5",-0.145 ± 0.11
17,"E3 ubiquitin-protein ligase NEDD4-like R223Q, Q96PU5",-0.153 ± 0.082
18,"E3 ubiquitin-protein ligase NEDD4-like R223S, Q96PU5",-0.154 ± 0.061
19,"E3 ubiquitin-protein ligase NEDD4-like R223T, Q96PU5",-0.393 ± 0.094
20,"E3 ubiquitin-protein ligase NEDD4-like R223V, Q96PU5",-0.249 ± 0.064
21,"E3 ubiquitin-protein ligase NEDD4-like R223Y, Q96PU5",-0.41 ± 0.1
22,"E3 ubiquitin-protein ligase NEDD4-like S184A, Q96PU5",-0.461 ± 0.096
23,"E3 ubiquitin-protein ligase NEDD4-like S184C, Q96PU5",-0.457 ± 0.1
